Patent US20060115897A1

Target: C3b (UniProt P01024)
Experiment: cell-based or functional assay

Chain of C3b (P01024 749-1663 limits assumed, chain 1 of 2): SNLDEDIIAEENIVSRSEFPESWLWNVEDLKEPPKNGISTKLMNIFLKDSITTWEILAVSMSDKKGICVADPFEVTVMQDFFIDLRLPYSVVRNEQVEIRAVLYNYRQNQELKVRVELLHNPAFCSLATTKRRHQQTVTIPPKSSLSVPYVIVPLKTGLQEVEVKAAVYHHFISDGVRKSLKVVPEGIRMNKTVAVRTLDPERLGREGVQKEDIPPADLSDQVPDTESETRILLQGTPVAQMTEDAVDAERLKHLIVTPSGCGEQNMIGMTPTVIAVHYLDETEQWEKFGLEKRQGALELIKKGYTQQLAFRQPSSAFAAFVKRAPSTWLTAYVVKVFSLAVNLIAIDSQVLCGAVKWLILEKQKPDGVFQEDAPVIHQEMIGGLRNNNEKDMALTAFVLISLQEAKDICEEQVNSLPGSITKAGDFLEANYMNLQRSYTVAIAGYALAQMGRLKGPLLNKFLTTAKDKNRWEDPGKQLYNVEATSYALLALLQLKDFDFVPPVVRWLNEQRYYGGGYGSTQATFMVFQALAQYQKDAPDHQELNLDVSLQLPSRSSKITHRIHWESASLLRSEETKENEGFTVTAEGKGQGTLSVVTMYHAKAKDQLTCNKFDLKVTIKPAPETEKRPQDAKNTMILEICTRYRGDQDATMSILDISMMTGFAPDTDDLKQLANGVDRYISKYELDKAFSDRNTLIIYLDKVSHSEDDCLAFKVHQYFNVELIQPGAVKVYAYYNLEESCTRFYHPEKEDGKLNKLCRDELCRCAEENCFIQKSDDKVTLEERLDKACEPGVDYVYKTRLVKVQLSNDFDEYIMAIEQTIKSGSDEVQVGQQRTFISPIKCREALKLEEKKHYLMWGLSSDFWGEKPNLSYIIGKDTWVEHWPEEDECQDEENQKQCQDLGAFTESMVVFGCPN
Chain of C3b (P01024 23-667 limits assumed, chain 2 of 2): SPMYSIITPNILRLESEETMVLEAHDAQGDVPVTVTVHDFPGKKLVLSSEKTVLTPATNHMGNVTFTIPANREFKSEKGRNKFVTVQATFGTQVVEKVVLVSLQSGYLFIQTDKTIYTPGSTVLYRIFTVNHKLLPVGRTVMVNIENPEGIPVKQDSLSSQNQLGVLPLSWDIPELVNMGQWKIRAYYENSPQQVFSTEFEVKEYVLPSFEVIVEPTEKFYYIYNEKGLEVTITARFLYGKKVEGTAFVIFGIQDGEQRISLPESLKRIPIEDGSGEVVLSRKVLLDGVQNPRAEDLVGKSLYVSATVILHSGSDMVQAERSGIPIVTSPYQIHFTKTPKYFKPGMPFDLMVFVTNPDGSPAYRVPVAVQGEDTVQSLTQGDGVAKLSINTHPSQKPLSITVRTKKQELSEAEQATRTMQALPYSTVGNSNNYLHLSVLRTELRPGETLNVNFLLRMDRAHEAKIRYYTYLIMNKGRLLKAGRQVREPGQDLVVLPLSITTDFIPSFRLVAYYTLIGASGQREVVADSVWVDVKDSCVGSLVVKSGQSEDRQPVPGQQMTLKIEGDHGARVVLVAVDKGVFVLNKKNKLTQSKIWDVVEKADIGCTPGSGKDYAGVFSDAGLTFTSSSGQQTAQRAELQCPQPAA

Substance: soluble human CR1 (from UniProt P17927 42-1971) (receptor)
- speed as cofactor in the degradation of C3b, against SPICEhis: > 2 fold
